The series deals with the molecule itself. The series is described as follows: cryo-EM structure.

B1: GroES (natural protein, E. coli)
chain: MNIRPLHDRVIVKRKEVETKSAGGIVLTGSAAAKSTRGEVLAVGNGRILENGEVKPLDVKVGDIVIFNDGYGVKSEKIDNEEVLIMSESDILAIVEA
As usually defined, the stoichiometry N is the number of molecules, sites or subunits per partner or assembly. For B1, the “stoichiometry N” value is 7.

These data come from paper PMC3695626 (Cell, 2013).
